Non-standard residues stand in square brackets, D forms with d. No end group written: not given here. Ahx = NCCCCCC(=O)O
Tests used:
[1] = target: 23D5, recombinant IgG2c antibody; experiment: inhibition ELISA 2nd protocol: antigen in solution varied, antibody 23D5, plate coated with G200-BSA peptide
Method: (§1) The pre-incubated samples were transferred (50 μl/well) to the blocked ELISA plates, and plates were incubated for 25 min at room temperature without shaking. Plates were washed as described above. Alkaline phosphatase conjugated anti-mouse IgG detection antibody (Mabtech, cat. no. 3310-4) was diluted 1:1000 and added to each plate (50 μl/well). The plate was sealed and incubated with shaking (900 rpm) for 45 min at room temperature and subsequently washed as described above. Alkaline phosphatase substrate (50 μl/well) was added to the plate and the optical density was read every 15 min at a wavelength of 405 nm for up to 120 min. The IC50 values were determined from a log inhibitor concentration response curve (FIG. 17).
(§2) In addition, a second inhibition ELISA with the ApoE peptides conjugated to BSA was run, in which the starting concentration of the antigens in solution was increased 10-fold. i.e. the starting concentration of the N-terminal neo-epitope of synthetic ApoE peptides conjugated to BSA and starting at amino acid L198 (SEQ ID NO:52), A199 (SEQ ID NO:51) or G200 (SEQ ID NO:50), or to BSA-conjugated negative control peptide (SEQ ID NO:53), was 10000 ng/ml. […] IC50 values were determined from a log inhibitor concentration response curve (FIG. 20).

[2] = target: T1, 7B10, recombinant IgG2c antibody; experiment: inhibition ELISA 2nd protocol: antigen in solution varied, antibody 7B10, plate coated with G200-BSA peptide
T1 construct: also called 7610
T1 sequence (VH, as listed by the source, chain 1 of 2): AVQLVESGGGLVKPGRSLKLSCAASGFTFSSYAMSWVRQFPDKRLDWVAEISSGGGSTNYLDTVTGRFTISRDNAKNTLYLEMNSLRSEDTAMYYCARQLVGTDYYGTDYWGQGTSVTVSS
T1 sequence (VL, as listed by the source, chain 2 of 2): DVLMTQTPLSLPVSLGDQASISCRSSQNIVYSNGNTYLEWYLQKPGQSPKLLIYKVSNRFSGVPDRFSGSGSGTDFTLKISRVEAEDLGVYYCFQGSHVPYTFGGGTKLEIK
Method: (§3) […] of each synthetic ApoE peptide, recombinant C-terminal ApoE fragment G200-HIS and full-length ApoE4 were prepared by 4-fold dilution starting from 1000 ng/ml in 96 well storage plates (30 μl final volume). Each recombinant antibody to be tested was added (30 μl) to the serial dilutions of each of the synthetic ApoE peptides, G200-HIS or full-length ApoE4 at a final concentration of 0.05 μg/ml per well. Samples were pre-incubated for 45 min at room temperature with shaking (900 rpm).
as §1, with “17). […]” for “17).”

[3] = target: 36A12, monoclonal anti-A199 antibody; experiment: inhibition ELISA; antibody at 0.05 ug/ml pre-incubated with the peptide in solution (4-fold dilutions from 10000 ng/ml), then on a plate coated with A199-BSA peptide; blank reduced OD 405 nm
36A12, monoclonal anti-A199 antibody, sequence (VH, as listed by the source, chain 1 of 2): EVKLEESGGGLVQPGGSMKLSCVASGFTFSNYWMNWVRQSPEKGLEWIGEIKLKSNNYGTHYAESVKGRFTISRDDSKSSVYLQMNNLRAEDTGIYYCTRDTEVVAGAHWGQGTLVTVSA
36A12, monoclonal anti-A199 antibody, sequence (VL, as listed by the source, chain 2 of 2): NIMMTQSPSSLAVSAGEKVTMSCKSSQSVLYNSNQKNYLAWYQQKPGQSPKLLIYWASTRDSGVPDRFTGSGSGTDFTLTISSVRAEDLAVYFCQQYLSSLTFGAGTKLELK
Method: (§4) 0.5 μg/ml solution of N-terminal neo-epitope peptide A199 (SEQ ID NO:51) conjugated to BSA was prepared by dilution in PBS. 50 μl/well were added to an ELISA half-area 96 well microtiter plate, the plate was sealed with adhesive sealer and incubated over night at 4° C. After discarding the solution, the plates were blocked with protein-free blocking solution (Pierce) (150 μl/well) at room temperature for 90 min with shaking (900 rpm). The blocked plate was washed four times with washing buffer containing 0.28 mM NaH₂PO₄, 2.5 mM Na₂HPO₄, 150 mM NaCl, 0.1% TWEEN®-20 and 0.0075% Kathon CG.
(§5) Serial dilutions of each synthetic ApoE peptide were prepared by 4-fold dilution starting from 10000 ng/ml in 96 well storage plates (30 μl final volume). Each purified monoclonal antibody to be tested was added (30 μl) to the serial dilutions of each of the synthetic ApoE peptides at a final concentration of 0.05 μg/ml per well. Samples were pre-incubated for 45 min at room temperature with shaking (900 rpm).
as §1, with “10” for “25”, “10” for “15”, “29).” for “17).”

[4] = target: 38G9, monoclonal anti-A199 antibody; experiment: as above
38G9, monoclonal anti-A199 antibody, sequence (VH, as listed by the source, chain 1 of 2): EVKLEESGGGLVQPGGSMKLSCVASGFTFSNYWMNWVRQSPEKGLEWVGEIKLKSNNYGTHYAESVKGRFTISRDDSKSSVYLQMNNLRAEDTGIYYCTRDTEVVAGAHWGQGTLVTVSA
38G9, monoclonal anti-A199 antibody, sequence (VL, as listed by the source, chain 2 of 2): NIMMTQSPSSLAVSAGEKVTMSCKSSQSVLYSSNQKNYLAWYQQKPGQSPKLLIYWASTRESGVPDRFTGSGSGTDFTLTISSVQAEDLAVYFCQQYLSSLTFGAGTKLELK
Method: as §4, §5
as §1, with “10” for “25”, “10” for “15”, “29).” for “17).”

[5] = target: 28F2, recombinant IgG2c antibody; experiment: inhibition ELISA 2nd protocol: antigen in solution varied, antibody 28F2, plate coated with G200-BSA peptide
28F2, recombinant IgG2c antibody, sequence (VH, as listed by the source, chain 1 of 2): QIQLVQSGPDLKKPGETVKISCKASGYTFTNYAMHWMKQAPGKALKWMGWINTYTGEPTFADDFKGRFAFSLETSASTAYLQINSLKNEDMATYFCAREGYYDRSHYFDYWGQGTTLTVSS
28F2, recombinant IgG2c antibody, sequence (VL, as listed by the source, chain 2 of 2): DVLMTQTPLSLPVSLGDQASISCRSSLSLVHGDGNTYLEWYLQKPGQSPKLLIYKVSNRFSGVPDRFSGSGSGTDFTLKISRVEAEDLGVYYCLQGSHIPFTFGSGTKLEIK
Method: as §3
as §1, with “17). […]” for “17).”

[6] = target: 28F2, recombinant IgG2c antibody; experiment: inhibition ELISA: antigen in solution varied, antibody 28F2 at 0.05 µg/ml, plate coated with G200-BSA peptide
Method: as §3, §1

[7] = target: T1, 7B10, recombinant IgG2c antibody; experiment: inhibition ELISA: antigen in solution varied, antibody 7B10 at 0.05 µg/ml, plate coated with G200-BSA peptide
Method: as §1

[8] = target: 17G4, recombinant IgG2c antibody; experiment: inhibition ELISA 2nd protocol: antigen in solution varied, antibody 17G4, plate coated with G200-BSA peptide
17G4, recombinant IgG2c antibody, sequence (VH, as listed by the source, chain 1 of 2): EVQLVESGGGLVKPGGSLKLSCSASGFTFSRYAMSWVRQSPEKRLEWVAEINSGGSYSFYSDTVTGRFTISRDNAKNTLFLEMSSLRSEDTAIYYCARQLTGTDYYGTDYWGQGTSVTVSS
17G4, recombinant IgG2c antibody, sequence (VL, as listed by the source, chain 2 of 2): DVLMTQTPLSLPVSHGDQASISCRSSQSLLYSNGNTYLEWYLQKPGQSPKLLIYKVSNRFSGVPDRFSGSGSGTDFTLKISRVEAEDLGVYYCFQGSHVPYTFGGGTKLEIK
Method: as §1, §2

[9] = target: 6F4, monoclonal anti-L198 antibody; experiment: inhibition ELISA; antibody at 0.05 ug/ml pre-incubated with the peptide in solution (4-fold dilutions from 10000 ng/ml), then on a plate coated with L198-BSA peptide; blank reduced OD 405 nm
6F4, monoclonal anti-L198 antibody, sequence (VH, as listed by the source, chain 1 of 2): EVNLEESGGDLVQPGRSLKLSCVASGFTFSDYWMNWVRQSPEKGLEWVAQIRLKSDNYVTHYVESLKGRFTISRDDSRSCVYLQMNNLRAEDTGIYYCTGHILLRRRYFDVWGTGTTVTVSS
6F4, monoclonal anti-L198 antibody, sequence (VL, as listed by the source, chain 2 of 2): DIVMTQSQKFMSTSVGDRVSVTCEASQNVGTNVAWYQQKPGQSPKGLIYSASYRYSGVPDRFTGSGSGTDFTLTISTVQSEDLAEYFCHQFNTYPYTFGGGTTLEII
Method: as §4, with “L198” for “A199”, “NO:52)” for “NO:51)”
as §5, with “recombinant” for “purified monoclonal”
as §1, with “10” for “25”, “10” for “15”, “25).” for “17).”

[10] = target: 15F8, monoclonal anti-L198 antibody; experiment: as above
15F8, monoclonal anti-L198 antibody, sequence (VH, as listed by the source, chain 1 of 2): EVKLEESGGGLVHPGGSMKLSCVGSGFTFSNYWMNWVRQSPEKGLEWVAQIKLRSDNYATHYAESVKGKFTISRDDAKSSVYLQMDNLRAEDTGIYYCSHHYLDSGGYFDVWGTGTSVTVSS
15F8, monoclonal anti-L198 antibody, sequence (VL, as listed by the source, chain 2 of 2): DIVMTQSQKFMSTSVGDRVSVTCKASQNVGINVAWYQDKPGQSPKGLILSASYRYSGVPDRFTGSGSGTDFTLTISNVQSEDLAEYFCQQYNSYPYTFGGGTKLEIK
Method: as §4, with “L198” for “A199”, “NO:52)” for “NO:51)”
as §5, with “recombinant” for “purified monoclonal”
as §1, with “10” for “25”, “10” for “15”, “25).” for “17).”

[11] = target: 23D5, recombinant IgG2c antibody; experiment: inhibition ELISA: antigen in solution varied, antibody 23D5 at 0.05 µg/ml, plate coated with G200-BSA peptide
Method: as §1

[12] = target: 7C7, recombinant IgG2c antibody; experiment: inhibition ELISA 2nd protocol: antigen in solution varied, antibody 7C7, plate coated with G200-BSA peptide
7C7, recombinant IgG2c antibody, sequence (VH, as listed by the source, chain 1 of 2): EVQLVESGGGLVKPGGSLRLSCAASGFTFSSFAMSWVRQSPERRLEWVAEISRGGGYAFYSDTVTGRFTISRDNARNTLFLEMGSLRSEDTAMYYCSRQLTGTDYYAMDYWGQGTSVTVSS
7C7, recombinant IgG2c antibody, sequence (VL, as listed by the source, chain 2 of 2): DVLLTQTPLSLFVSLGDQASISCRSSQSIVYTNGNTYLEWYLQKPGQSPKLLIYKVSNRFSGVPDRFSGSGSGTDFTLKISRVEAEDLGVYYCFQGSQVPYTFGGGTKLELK
Method: as §1, §2

[13] = target: 17G4, recombinant IgG2c antibody; experiment: inhibition ELISA: antigen in solution varied, antibody 17G4 at 0.05 µg/ml, plate coated with G200-BSA peptide
Method: as §1

[14] = target: 7C7, recombinant IgG2c antibody; experiment: inhibition ELISA: antigen in solution varied, antibody 7C7 at 0.05 µg/ml, plate coated with G200-BSA peptide
Method: as §1

23D5, recombinant IgG2c antibody, sequence (VH, as listed by the source, chain 1 of 2): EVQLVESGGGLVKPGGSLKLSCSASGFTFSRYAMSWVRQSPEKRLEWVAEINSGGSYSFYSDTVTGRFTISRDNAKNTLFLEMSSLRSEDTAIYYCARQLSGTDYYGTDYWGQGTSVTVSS

B1: G200 N-terminal neo-epitope peptide GQPLQE-Acp-C (SEQ ID NO:50) conjugated to BSA (peptide)
peptide: GQPLQE[Ahx]C
modifications: not fully specified (residue 8); printed as GQPLQE-Acp-C; also: C-terminal Cys conjugated to BSA carrier
notes: also called G200-BSA peptide; G200-peptide
- IC50 [1]: 3.8 ng/mL
- IC50 [2]: 5.8 ng/mL
- binding result [3]: no binding (tested: 10000 ng/ml)
- binding result [4]: no binding (tested: 10000 ng/ml)
- IC50 [5]: 3.7 ng/mL
- IC50 [6]: 3.2 ng/mL
- IC50 [7]: 2.2 ng/mL
- IC50 [8]: 5.8 ng/mL
- binding result [9]: no binding (tested: 10000 ng/ml)
- binding result [10]: no binding (tested: 10000 ng/ml)
- IC50 [11]: 2.8 ng/mL
- IC50 [12]: 6.3 ng/mL
- IC50 [13]: 2.9 ng/mL
- IC50 [14]: 3.1 ng/mL

Reference: patent US20220242939A1 (BIOARCTIC, published 2022)
